# From article PMC4436786
# Values joined by “and” are separate entries in the source; they are usually repeats but may differ in a detail not shown here. Equal values may be shown once.
# Columns and labels:
# [1] = molecular target: AtSfh5 nodulin (soluble, recombinant) (Arabidopsis thaliana); assay: SEC
# [2] = molecular target: His-tagged AtSfh1 nodulin (recombinant, solubilized in 8 M urea) (Arabidopsis thaliana); assay: SDS-PAGE
# [3] = molecular target: His-tagged AtSfh3 nodulin (soluble, recombinant) (Arabidopsis thaliana); assay: SEC
# [4] = molecular target: mRFP-AtSfh1 nodulin (WT) (Arabidopsis thaliana); assay: SEC
# [5] = molecular target: mRFP-AtSfh1^E485P,Q534P nodulin (Arabidopsis thaliana); assay: SEC
# [6] = molecular target: myc-tagged AtSfh1 nodulin (Arabidopsis thaliana); assay: SEC
# [7] = molecular target: AtSfh8 nodulin (soluble, recombinant) (Arabidopsis thaliana); assay: SEC
# Sequence of AtSfh8 nodulin (soluble, recombinant) (domain or fragment) (F4IHJ0 whole entry, the tested form may be a part): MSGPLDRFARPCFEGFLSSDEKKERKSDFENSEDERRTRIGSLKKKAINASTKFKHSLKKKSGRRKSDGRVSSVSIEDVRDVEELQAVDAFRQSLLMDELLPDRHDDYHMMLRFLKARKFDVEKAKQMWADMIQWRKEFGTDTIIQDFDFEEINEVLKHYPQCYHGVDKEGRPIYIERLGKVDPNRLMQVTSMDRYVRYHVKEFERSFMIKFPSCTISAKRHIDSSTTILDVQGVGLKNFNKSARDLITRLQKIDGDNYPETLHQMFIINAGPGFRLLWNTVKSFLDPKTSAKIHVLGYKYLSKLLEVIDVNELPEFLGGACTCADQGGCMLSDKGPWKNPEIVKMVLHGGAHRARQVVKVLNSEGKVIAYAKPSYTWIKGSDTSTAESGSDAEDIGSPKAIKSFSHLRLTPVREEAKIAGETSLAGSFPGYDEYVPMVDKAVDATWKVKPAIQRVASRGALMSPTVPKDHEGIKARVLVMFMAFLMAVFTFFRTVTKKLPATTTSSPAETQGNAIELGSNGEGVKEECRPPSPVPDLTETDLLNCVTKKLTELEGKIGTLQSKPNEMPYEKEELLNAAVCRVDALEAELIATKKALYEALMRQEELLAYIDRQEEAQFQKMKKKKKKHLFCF
# Sequence of His-tagged AtSfh3 nodulin (soluble, recombinant) (domain or fragment) (Q93ZE9 whole entry, the tested form may be a part): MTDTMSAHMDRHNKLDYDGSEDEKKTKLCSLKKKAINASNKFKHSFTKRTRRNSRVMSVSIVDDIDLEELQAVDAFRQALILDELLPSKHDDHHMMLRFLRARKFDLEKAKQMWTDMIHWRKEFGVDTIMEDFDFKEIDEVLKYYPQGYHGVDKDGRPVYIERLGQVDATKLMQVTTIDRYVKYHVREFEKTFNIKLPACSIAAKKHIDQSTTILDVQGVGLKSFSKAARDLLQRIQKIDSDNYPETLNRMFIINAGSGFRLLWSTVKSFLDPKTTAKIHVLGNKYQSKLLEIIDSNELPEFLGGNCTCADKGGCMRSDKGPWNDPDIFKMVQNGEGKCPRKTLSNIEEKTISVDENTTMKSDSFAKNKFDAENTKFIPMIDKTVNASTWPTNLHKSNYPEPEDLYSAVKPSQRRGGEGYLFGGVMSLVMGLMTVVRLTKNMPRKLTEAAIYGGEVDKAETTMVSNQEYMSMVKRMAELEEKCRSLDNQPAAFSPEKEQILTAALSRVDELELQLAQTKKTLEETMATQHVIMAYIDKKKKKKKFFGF
# Sequence of His-tagged AtSfh1 nodulin (recombinant, solubilized in 8 M urea) (domain or fragment) (F4JLE5 whole entry, the tested form may be a part): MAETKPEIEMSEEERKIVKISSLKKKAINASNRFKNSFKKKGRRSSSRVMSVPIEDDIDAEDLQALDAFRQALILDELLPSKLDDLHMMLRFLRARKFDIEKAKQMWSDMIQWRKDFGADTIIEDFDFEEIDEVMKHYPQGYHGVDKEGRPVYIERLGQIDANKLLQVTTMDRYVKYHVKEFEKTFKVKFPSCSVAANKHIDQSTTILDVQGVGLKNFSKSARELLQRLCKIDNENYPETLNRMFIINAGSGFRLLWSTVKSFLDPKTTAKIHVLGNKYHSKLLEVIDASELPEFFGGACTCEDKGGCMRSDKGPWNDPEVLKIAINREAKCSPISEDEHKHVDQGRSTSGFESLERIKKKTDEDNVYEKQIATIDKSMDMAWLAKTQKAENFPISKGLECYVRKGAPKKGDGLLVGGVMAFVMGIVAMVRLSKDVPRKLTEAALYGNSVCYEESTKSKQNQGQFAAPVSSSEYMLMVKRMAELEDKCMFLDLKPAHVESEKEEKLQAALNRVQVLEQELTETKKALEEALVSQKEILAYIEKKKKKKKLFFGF
# Sequence of AtSfh5 nodulin (soluble, recombinant) (domain or fragment) (Q8GXC6 whole entry, the tested form may be a part): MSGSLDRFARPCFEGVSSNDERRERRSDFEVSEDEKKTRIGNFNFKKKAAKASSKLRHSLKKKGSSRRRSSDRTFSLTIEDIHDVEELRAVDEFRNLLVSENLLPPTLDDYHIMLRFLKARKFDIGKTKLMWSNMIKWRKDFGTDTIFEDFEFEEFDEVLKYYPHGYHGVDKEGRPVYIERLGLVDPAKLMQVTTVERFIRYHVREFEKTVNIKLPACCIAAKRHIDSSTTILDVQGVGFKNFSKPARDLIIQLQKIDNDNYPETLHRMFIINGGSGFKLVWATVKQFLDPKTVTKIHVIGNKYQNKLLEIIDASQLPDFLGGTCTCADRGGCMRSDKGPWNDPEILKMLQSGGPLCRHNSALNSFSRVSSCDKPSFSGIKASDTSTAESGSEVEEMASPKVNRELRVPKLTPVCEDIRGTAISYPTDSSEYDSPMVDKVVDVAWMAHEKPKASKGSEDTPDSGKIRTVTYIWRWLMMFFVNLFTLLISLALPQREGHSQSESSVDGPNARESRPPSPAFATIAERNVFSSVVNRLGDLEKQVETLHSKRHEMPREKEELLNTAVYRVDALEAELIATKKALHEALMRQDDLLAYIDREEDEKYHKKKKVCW
substance,measurement,setting,value
"AtSfh5 nodulin (soluble, recombinant) (domain or fragment)",stoichiometry N,[1],6
"His-tagged AtSfh1 nodulin (recombinant, solubilized in 8 M urea) (domain or fragment)",stoichiometry N,[2],8
"His-tagged AtSfh3 nodulin (soluble, recombinant) (domain or fragment)",stoichiometry N,[3],6
mRFP-AtSfh1 nodulin (WT) (domain or fragment),stoichiometry N,[4],4
"mRFP-AtSfh1^E485P,Q534P nodulin (domain or fragment)",stoichiometry N,[5],2
myc-tagged AtSfh1 nodulin (domain or fragment),stoichiometry N,[6],6 and 8
"AtSfh8 nodulin (soluble, recombinant) (domain or fragment)",stoichiometry N,[7],6
